Experimental data taken from publication doi:10.1101/2023.10.30.564668 (bioRxiv, 2023).

Target: RABV-G domain III (Rabies virus, strain CVS-11 (GenBank …, stabilised))
Test: crystal structure

B1: CR57 diabody (other)
VH: EVQLVQSGAEVKKPGSSVKVSCKASGGTFNRYTVNWVRQAPGQGLEWMGGIIPIFGTANYAQRFQGRLTITADESTSTAYMELSSLRSDDTAVYFCARENLDNSGTYYYFSGWFDPWGQGTLVTVSS
VL: QSALTQPRSVSGSPGQSVTISCTGTSSDIGGYNFVSWYQQHPGKAPKLMIYDATKRPSGVPDRFSGSKSGNTASLTISGLQAEDEADYYCCSYAGDYTPGVVFGGGTKLTVL
stoichiometry N: 2 domain III per diabody
